# Measurements taken from the nanobody polyreactivity screen of Harvey et al. (2022).
# Assay: yeast display, Sf9 membrane polyspecificity reagent, FACS + sequencing; frameworks hold sequencing errors
# Method in brief: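 Genes from sorted yeast were amplified by colony PCR, read by MiSeq 2 × 250 sequencing and filtered on CDR length. These cells carried a synthetic nanobody library in Saccharomyces cerevisiae BJ5465 and were sorted by FACS into low and high (top ~1%) gates on anti-HA and streptavidin fluorescence. Polyreactivity is labelled according to the gate of origin.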
row,Sequence,polyreactivity (PSR sort gate)
1,QVQLVESGGGLVQAGGSLRLSCAASGRTFTYYAMGWYRQAPGKERELVAAITSGGRTYYADSVKGRFTISRDNAKNTVYLQMNSLKPEDTAVYYCAARRIRDYYRSYDYWGQGTQVTVSS,high polyreactivity
2,QVQLVESGGGLVQAGGSLRLSCAASGRTFTYYAMGWYRQAPGKERELVAAITWSGGSTYYADSVKGRFTISRDNAKNTVYLQMNSLKPEDTAVYYCAAVDADYYYWGQGTQVTVSS,high polyreactivity
3,QVQLVESGGGLVQAGGSLRLSCAASGRTFTYYAMGWYRQAPGKERELVATIRSGGTTNYADSVKGRFTISRDNAKNTVYLQMNSLKPEDTAVYYCARVLSYVWYYRDPYQYPDYDYWGQGTQVTVSS,low polyreactivity
4,QVQLVESGGGLVQAGGSLRLSCAASGRTFVDYAMGWYRQAPGKERELVAAINTGGRTKYADSVKGRFTISRDNAKITVYLQMNSLKPEDTAVYYCAARKQYGGVRGDYWGQGTQVTVSS,high polyreactivity
5,QVQLVESGGGLVQAGGSLRLSCAASGRTFVDYVMGWYRQAPGKERELVAAISRSGSTYYADSVKGRFTISRDNAKNTVYLQMNSLKPEDTAVYYCNVEYLRTYYILSDYWGQGTQVTVSS,low polyreactivity
6,QVQLVESGGGLVQAGGSLRLSCAASGRTFVFNAMGWYRQAPGKERELVAAITKNGGSTYYADSVKGRFTISRDNAKNPVYLQMNSLKPEDTAVYYCAGRRGYPFYYWGQGTQVTVSS,low polyreactivity
7,QVQLVESGGGLVQAGGSLRLSCAASGRTFVFYAMGWYRQAPGKERELVAAISSSGGSTYYADSVKGRFTISRDNAKNTVYLQMNSLKPEDTAVYYCNADFYSVGSQYGYWGQGTQVTVSS,high polyreactivity
8,QVQLVESGGGLVQAGGSLRLSCAASGRTFVGNAMGWYRQAPGKERELVATITGSGGRTYYADSVKGRFTISRDNAKNTVYLQMNSLKPEDTAVYYCAAKRSRYRYDYWGQGTQVTVSS,high polyreactivity
9,QVQLVESGGGLVQAGGSLRLSCAASGRTFVGNAMGWYRQAPGKERELVATITRRGGSTYYADSVKGRFTISRDNAKNTVYLQMNSLKPEDTAVYYCSAGSQPGRKYYYWGQGTQVTVSS,high polyreactivity
10,QVQLVESGGGLVQAGGSLRLSCAASGRTFVGNGKGWYRLAPGKERELLASISFSGGAGTYYADSVKGRFTISRDNAKYTVYLQMNSLKPEDTAVYYCAKRYVTPTYRRYYWGPGTQVTVSS,high polyreactivity
11,QVQLVESGGGLVQAGGSLRLSCAASGRTFVGYAMGWYRQAPGKEREFVAAISYRGGRTYYADSVKGRFTISRDNAKNTVYLQMNSLKPEDTAVYYCAAEYRSNHGGVDYWGQGTQVTVSS,high polyreactivity
12,QVQLVESGGGLVQAGGSLRLSCAASGRTFVGYAMGWYRQAPGKERELVAAISIGGGRTYYADSVKGRFTISRDNAKNTVYLQMNSLKPEDTAVYYCAAVFRQSNRHGGYDYWGQGTQVTVSS,high polyreactivity
13,QVQLVESGGGLVQAGGSLRLSCAASGRTFVGYPMGWCRQAPGKERELVAAIDLSDGSTSYADSVKGRFTISRDHAKNTVYLQMISLTPEHTAVYYCAKTSANVYAGAHDSWGQGTQVTVSS,low polyreactivity
14,QVQLVESGGGLVQAGGSLRLSCAASGRTFVGYVMGWDRQAPGKERELVAAISTSGGRTYYADSVKGRFTISRDNAKNTGYLQMNSLKPEDTAVYYCNAVSKQPIGYEYWGQGSQVTVSS,high polyreactivity
15,QVQLVESGGGLVQAGGSLRLSCAASGRTFVHYTMGWYRQAPGKERELVAAISGTGTSTYYADSVKGRFTISRDNAKNTVYLQMNSLKPEDTAVYYCARDPFFGFHIGYPRRDYWGQGTQVTVSS,low polyreactivity
16,QVQLVESGGGLVQAGGSLRLSCAASGRTFVIYAMGWYRQAPGKERELVAAISKGGGSTYYADSVKGRFTISRDNAKNTVYLQMNSLKPEDTAVYYCAAGYGTYYQYSRFDYWGQGTQVTVSS,high polyreactivity

row,Sequence,polyreactivity (PSR sort gate)
1,QVQLVESGGGLVQAGGSLRLSCAASGRTFVIYDMGWYRQAHGKERELVAGITRSGGSTYADSVKGRFTISRDNAKNTVYLQMNSLKPEDTAVYYGARRKLYHKSPYDYWGQGTQVTVSS,low polyreactivity
2,QVQLVESGGGLVQAGGSLRLSCAASGRTFVKNTMGWYRQATGKERELVAAISSSGGSTYYADSVKGRFTISRHNAKNTVYLQMNSLNPEDTAVYFCAVSYPYKHAGGWYAYNYWGQGTQVTVSS,high polyreactivity
3,QVQLVESGGGLVQAGGSLRLSCAASGRTFVLNVMGWYRQAPGKERELVADITSGDNTYYADSVKGRFTISRDNAKNTVYLQRNSLKPEDTAVYYCAADGWFYFGYDYWGQGTQVTVSS,low polyreactivity
4,QVQLVESGGGLVQAGGSLRLSCAASGRTFVLYTMGWYRQAPGKERELLAVGSTYYADSVKGRFTISRDNAKNTVYLQMNSLKPEDTAVYYCAVDLYWSYFNGALGYRYYYWGQGTQVTVSS,high polyreactivity
5,QVQLVESGGGLVQAGGSLRLSCAASGRTFVLYTMGWYRQAPGKERELVAAISGSGGRSYYADSVKGRFTISRDHAKNSVYLQMNSLKPEDTAVYYCAAYGQGLPLYGYWGQGTQVTVSS,high polyreactivity
6,QVQLVESGGGLVQAGGSLRLSCAASGRTFVNYALGWYRQAPGKERELVAAISGGGGTNYADSVKGRFTISRDNAKNTVYLQMNSLKPEDTAVYYCNAVPSQHDEFDYWGQGTQVTVSS,low polyreactivity
7,QVQLVESGGGLVQAGGSLRLSCAASGRTFVPYAMGWYRQAPGKEREFVAAISSRVASTYYADSVKGRFTISRDNAKNTVYLQMNSLKPEDTAVYYCARTNPAYSIYDYWGQGTQVTVSS,low polyreactivity
8,QVQLVESGGGLVQAGGSLRLSCAASGRTFVPYAMGWYRQAPGKERELVARIDSSGGSTYYADSVKGRFTISRDNAKNTVYLQMNSLKPEDTAVYYCAAVFYYWSLRSYYWGQGTQVTVSS,high polyreactivity
9,QVQLVESGGGLVQAGGSLRLSCAASGRTFVQNAMGWYRQAPGKERELVASIRYRDGSTYYADSVKGRFTISRDNAKNTVYLQMNSLKPEDTAVYYCAAYLPGWELREYGYWGQGTQVTVSS,high polyreactivity
10,QVQLVESGGGLVQAGGSLRLSCAASGRTFVQYVMGRYRQAPGKERELVAAITSSGGSTYADSVKGRFTISRDNAKNTVYLQMNSLKPEDTAVYYSAADYLDGVGDVEHDYWGQGTQVTVSS,low polyreactivity
11,QVQLVESGGGLVQAGGSLRLSCAASGRTFVRNAMGWYRQAPGKERELVAAISVDGSSTYYADSVKGRFTISRDNAKNTVYLQMNSLKPEDTAVYYCNADWDYRDFYDITYDYWGQGTQVTVSS,low polyreactivity
12,QVQLVESGGGLVQAGGSLRLSCAASGRTFVRNTMGWYRQAPGKERELVAAISGGGSTYYADSVKGRFTISRDNAKNTVYLQMNSLKPEDTAVYYCAATTRRQGGKRFDYWGQGTQVTVSS,high polyreactivity
13,QVQLVESGGGLVQAGGSLRLSCAASGRTFVRYAMGWSRQAPGKERELVAAITKSGGSTSYADSVKGRFTISRDNAKNTVYLQMNSLKPEDTAVYYCATRGYYQRSSPMDYWGQGTQVTVSS,high polyreactivity
14,QVQLVESGGGLVQAGGSLRLSCAASGRTFVRYAMGWYRQAPGKERELVAAISLRGGRTYYADSVKGRFTISRDYANNTVYLQMNSRNPEDTAVYYCAARSYPTGASFDYWGQGTQVTVSS,high polyreactivity
15,QVQLVESGGGLVQAGGSLRLSCAASGRTFVRYAMGWYRQAPGKERELVAAISWSGGSTYYADSVKGRFTISRDNAKNTVYLQMNSLKPADTAVYYCAAYYRGRNFDYCGQGTQVTVSS,high polyreactivity
16,QVQLVESGGGLVQAGGSLRLSCAASGRTFVSNAMGWYRQAPGKERELVATITVSSDSTYYADSVKGRFTISRDNAKNTVYLQMNSLKPEDTAVYYCAARNPTWSFQFDYWGQGTQVTVSS,low polyreactivity
